Measured values from paper PMC5461201.

Columns and labels:
[1] = target: FLAG-ADAR1p110-T/S-to-A (phosphorylation inhibitory mutant) (human); experiment: pull-down
[2] = target: FLAG-ADAR1p110-T/S-to-D (phosphomimetic mutant) (human); experiment: pull-down

Q: How did the binding efficiency (judged from unbound His-Xpo5 in flow-through) [1] turn out when “Xpo5-RanGTP complex (His-Xpo5 with His-RanQ69L and GTP, preassembled with VARdm RNA) (from UniProt Q9HAV4 1-1204; P62826 1-216)” was run?
A: < 10%

Q: What about the binding efficiency (judged from unbound His-Xpo5 in flow-through) [2] of the same substance?
A: 70%

Q: What about the fold amount bound against ADAR1p110-T/S-to-A [2] of the same substance?
A: 10 to 20 fold
